In experiment [1] the target is eIF5B Domain-4 (eIF5B-D4) (human). The experiment can be described thus: fluorescence polarisation.
The target in experiment [2] is eIF5B-D34 (eIF5B domains D3 and D4) (human). The experiment in a line: fluorescence polarisation.
Experiment [3] has as its target fluorescein-labeled synthetic eIF1A-CT7 peptide (human). The experiment in a line: fluorescence polarisation.
In experiment [4] the target is eIF1AΔC (eIF1A missing the entire 26-residue C-terminal tail) (human). The experiment in a line: NMR titration.

Where only a bound is given, the exact number is not on record here.

Chain of eIF5B Domain-4 (eIF5B-D4) (human) (O60841 whole entry, the tested form may be a part): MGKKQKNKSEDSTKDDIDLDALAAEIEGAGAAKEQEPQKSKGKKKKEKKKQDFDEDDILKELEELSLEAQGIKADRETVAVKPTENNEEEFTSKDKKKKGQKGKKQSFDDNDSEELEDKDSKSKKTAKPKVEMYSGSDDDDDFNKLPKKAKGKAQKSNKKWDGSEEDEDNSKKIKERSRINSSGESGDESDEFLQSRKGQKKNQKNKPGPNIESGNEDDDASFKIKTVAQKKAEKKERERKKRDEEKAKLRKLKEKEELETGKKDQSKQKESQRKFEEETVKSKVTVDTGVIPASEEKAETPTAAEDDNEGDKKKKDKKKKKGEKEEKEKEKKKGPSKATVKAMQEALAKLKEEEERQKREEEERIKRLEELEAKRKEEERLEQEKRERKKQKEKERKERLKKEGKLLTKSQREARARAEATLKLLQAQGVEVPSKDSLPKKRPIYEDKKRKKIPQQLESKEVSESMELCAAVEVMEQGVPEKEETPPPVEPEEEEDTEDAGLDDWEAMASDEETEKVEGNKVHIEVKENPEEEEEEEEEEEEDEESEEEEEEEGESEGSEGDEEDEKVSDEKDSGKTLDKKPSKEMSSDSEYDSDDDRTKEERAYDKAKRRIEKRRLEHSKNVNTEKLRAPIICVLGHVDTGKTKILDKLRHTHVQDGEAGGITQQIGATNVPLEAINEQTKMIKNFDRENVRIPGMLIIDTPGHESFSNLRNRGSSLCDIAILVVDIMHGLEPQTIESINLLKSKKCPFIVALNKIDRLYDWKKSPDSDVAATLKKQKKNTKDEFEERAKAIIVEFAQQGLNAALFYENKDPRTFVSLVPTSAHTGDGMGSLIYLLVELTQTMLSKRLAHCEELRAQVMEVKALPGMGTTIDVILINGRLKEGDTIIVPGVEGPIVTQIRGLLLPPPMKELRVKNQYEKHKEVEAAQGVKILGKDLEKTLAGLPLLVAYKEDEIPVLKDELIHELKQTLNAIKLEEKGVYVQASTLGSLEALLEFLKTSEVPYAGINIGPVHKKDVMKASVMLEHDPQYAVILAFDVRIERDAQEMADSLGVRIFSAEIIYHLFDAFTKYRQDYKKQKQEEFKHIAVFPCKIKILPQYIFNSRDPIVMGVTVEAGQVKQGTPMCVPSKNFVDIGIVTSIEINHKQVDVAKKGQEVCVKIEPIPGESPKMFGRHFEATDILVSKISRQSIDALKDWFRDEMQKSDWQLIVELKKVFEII
Chain of eIF5B-D34 (eIF5B domains D3 and D4) (human) (O60841 whole entry, the tested form may be a part): as above

On to “eIF1A-CT16 (the 16 C-terminal residues in eIF1A) (peptide)”, for which the Kd in experiment [1] was 12 µM; in experiment [2], 23 µM. Regarding “eIF5B-D34 (eIF5B domains D3 and D4) (domain or fragment)”, the Kd in experiment [3] is 27 µM.

On to “eIF5B Domain-4 (eIF5B-D4) (domain or fragment)”, for which the Kd in experiment [3] was found to be 12 µM. On to “eIF5B Domain-3 (eIF5B-D3) (domain or fragment)”, for which, in experiment [4], the Kd was less than 1000 µM. Turning to “eIF1A C-terminal tail (eIF1A-CTT), 26 residues (peptide)”, the Kd in experiment [1] is 12 µM; in experiment [2], 18 µM. With “eukaryotic translation initiation factor 1A (eIF1A), full-length (from UniProt P47813 1-144) (natural protein)”, the figures for the Kd in experiment [1] and in experiment [2] were 39 µM and 41 µM, respectively.
